In patent publication US20160280792A1 (Kyowa Kirin, published 2016):
One block for each binder: values may come before it.

Experiments:
[1] = biological target: T1, soluble form of human IL-3Rα protein (extracellular region with C-terminal FLAG tag) (human, UniProt P26951 19-305); assay: SPR (Biacore 2000): antibody captured on anti-human antibody CM5 chip, soluble IL-3Rα as analyte, 1:1 Langmuir fit
T1 construct: Made in CHOras1 cells, purified on anti-FLAG gel; also called soluble form of IL-3Rα protein; soluble form of human IL-3Rα extracellular region
T1 sequence: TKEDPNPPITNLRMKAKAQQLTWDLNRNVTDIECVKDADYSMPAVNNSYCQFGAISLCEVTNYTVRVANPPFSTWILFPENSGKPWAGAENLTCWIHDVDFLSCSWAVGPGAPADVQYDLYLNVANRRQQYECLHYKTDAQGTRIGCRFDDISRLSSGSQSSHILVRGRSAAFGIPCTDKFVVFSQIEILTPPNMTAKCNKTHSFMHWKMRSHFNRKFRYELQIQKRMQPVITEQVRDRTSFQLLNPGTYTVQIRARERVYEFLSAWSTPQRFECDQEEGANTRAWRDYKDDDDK
Procedure: Specifically, CM5 (research grade) was used for a sensor tip (each GE). Firstly, the CM5 tip was activated by applying an equivalent mixture of 400 mM EDC (N-ethyl-N′-(3-dimethylaminopropyl)carbodiimidehydrochloride) and 100 mM NHS (N-hydroxysuccinimide) to the CM5 tip. Next, an antibody to the human antibody attached to the Human Antibody Capture Kit (GE) (hereinafter, referred to as anti-human antibody antibody) was diluted with the solution attached to the kit and applied thereto, thereby immobilizing the required amount of the anti-human antibody antibody to the CM5 tip. Regarding the mouse antibody to be used as a control, an antibody to the mouse antibody attached to the Mouse Antibody Capture Kit (GE) (hereinafter, referred to as anti-mouse antibody antibody) was diluted with the solution attached to the kit and applied thereto, thereby immobilizing a necessary amount thereof to the CM5 tip. Next, the surface of the activated tip was blocked and inactivated by applying 1 M of ethanolamine dihydrochloride thereto. By the above steps until this, preparation of a CM5 sensor tip which can measure the dissociation constant KD was completed.
Next, each of anti-IL-3Rα antibodies, was diluted to give a concentration of 5 μg/ml with HBS-FP buffer (GE) one kind per one flow cell and applied, thereby allowing it to bind to the immobilized anti-human antibody antibody or anti-mouse antibody antibody. Next, the soluble form of IL-3Rα protein was applied thereto. In order to dissociate the bound anti-IL-3Rα antibody and soluble form of IL-3Rα protein, 3 M MgCl₂ attached to Human Antibody Capture Kit or pH 1.7 of Glycine-HCl attached to Mouse Antibody Capture Kit was applied in the amount attached to the kit. The steps until this were regarded as one step. By repeating the same steps using two or more concentrations of the soluble form of IL-3Rα protein, data for calculating association and dissociation constants (sensorgram) were obtained.
In the analysis, Biaevaluation software (GE) was used and Biaevaluation Software Handbook was referred. Specifically, by carrying out simultaneous analysis of kinetics analysis, employing basically the 1:1 Langmuir binding reaction model and fitting, association rate constant (Ka) and dissociation rate constant (Kd) were calculated, and the value of dissociation constant KD was calculated by the calculation of Kd/Ka.

[2] = biological target: T2, IL-3Rα/GM-CSFRα chimeric protein, B domain of IL-3Rα replaced by that of GM-CSFRα, on HEK293T cells (human, UniProt P15509 115-213); assay: flow cytometry, labelled antibody at 1 µg/ml, HEK293T cells expressing the construct
T2 construct: domain: B domain; The KpnI sites (GGTACC) at both junctions each encode an extra Gly-Thr; also called B domain substitution
T2 sequence: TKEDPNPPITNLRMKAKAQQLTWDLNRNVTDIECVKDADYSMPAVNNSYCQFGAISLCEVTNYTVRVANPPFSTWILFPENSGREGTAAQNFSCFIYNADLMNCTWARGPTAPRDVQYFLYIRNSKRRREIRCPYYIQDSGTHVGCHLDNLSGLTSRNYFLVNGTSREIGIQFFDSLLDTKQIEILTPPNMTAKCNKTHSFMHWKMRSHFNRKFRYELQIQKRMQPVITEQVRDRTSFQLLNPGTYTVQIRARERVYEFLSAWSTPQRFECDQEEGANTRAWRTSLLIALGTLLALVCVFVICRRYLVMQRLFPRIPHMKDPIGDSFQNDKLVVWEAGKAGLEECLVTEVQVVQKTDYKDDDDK
Procedure: (§1) HEK293T cell (ATCC CRL 1268) was used for the preparation of the IL-3Rα/GM-CSFRα chimeric protein expression cell. Using 293Fectin (Invitrogen), the plasmid DNA obtained in the above was introduced as an expression vector into the HEK293T. The HEK293T to which the expression vector was introduced was cultured using a shaker under conditions of 5% CO₂ and 37° C. after 2 days of the introduction, the […] was used for in the flow cytometry analysis.
(§2) From 100,000 to 1,000,000 cells of the chimeric protein expression cell were allowed to react for 30 minutes on ice with at a concentration of 1 μg/ml with an AlexaFlour488-labeled human antibody or a commercially available FITC-labeled anti-IL-3Rα mouse antibody (7G3 or 9F5: both from BD Biosciences, 6H6: Acris Antibodies, AC145: Milteny Biotech, 107D2.08: Dendritics). A staining medium (Dulbecco's PBS supplemented with 2% fetal bovine serum, 2 mM EDTA and 0.05% NaN₃) was used for the dilution of antibodies and cells. Next, the cells reacted with antibodies were washed three times with the staining medium and whether the labeled antibody bound to the cell was confirmed by flow cytometry.

[3] = biological target: T3, IL-3Rα/GM-CSFRα chimeric protein, C domain of IL-3Rα replaced by that of GM-CSFRα, on HEK293T cells (human, UniProt P15509 214-327); assay: as above
T3 construct: domain: C domain; KpnI sites at both junctions each encode an extra Gly-Thr; also called C domain substitution
T3 sequence: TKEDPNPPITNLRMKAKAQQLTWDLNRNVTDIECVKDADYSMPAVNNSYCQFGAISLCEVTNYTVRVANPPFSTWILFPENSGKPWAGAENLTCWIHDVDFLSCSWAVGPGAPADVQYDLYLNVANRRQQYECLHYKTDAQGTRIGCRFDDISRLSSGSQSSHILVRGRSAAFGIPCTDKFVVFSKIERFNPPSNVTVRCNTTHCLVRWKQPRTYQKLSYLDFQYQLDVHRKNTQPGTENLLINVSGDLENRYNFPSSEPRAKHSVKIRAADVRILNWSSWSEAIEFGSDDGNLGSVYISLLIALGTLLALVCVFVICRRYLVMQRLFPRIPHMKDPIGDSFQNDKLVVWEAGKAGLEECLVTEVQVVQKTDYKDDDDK
Procedure: as §1, §2

[4] = biological target: T4, IL-3Rα/GM-CSFRα chimeric protein, region 6 (182-ILVRGRS-188) of IL-3Rα replaced by GM-CSFRα sequence, on … (human, UniProt P26951 19-378); assay: as above
T4 construct: also called Region 6 (B)
T4 chain: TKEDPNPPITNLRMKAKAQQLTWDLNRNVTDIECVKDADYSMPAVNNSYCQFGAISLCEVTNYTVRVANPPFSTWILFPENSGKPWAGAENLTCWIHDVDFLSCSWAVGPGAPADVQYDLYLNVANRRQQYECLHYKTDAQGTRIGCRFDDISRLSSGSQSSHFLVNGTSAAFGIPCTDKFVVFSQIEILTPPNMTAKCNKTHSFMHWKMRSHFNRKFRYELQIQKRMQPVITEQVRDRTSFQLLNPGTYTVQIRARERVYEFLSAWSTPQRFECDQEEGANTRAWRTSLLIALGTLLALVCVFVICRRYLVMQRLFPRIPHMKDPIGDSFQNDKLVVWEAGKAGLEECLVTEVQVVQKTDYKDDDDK

[5] = biological target: T5, IL-3Rα/GM-CSFRα chimeric protein, region 7 (192-GIPCTDK-198) of IL-3Rα replaced by GM-CSFRα sequence, on … (human, UniProt P26951 19-378); assay: as above
T5 construct: also called Region 7 (B)
T5 chain: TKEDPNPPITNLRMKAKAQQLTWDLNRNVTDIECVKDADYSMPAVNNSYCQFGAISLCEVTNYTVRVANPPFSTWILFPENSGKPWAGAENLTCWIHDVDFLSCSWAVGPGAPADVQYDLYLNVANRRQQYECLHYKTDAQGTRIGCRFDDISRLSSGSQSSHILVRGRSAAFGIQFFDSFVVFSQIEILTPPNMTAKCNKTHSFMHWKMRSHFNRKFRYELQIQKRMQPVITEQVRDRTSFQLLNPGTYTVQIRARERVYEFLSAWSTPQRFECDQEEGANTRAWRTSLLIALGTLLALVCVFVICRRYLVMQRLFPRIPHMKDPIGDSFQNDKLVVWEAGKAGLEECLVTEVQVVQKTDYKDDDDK

B2: chimeric 7G3 antibody (mouse 7G3 variable regions, human IgG1 constant region) (antibody, V domains shown)
VH: EVQLQQSGPELVKPGASVKMSCKASGYTFTDYYMKWVKQSHGKSLEWIGDIIPSNGATFYNQKFKGKATLTVDRSSSTAYMHLNSLTSEDSAVYYCTRSHLLRASWFAYWGQGTLVTVSA
VL: DFVMTQSPSSLTVTAGEKVTMSCKSSQSLLNSGNQKNYLTWYLQKPGQPPKLLIYWASTRESGVPDRFTGSGSGTDFTLTISSVQAEDLAVYYCQNDYSYPYTFGGGTKLEIK
notes: also called 7G3 (Chimeric antibody)
- Kd [1]: 1.88 nM

B3: Old4 anti-human IL-3Rα human antibody (antibody, human IgG1, V domains shown)
VH: QVQLLQSGAEVKKPGSSVKVSCKASGGTFSTYAISWVRQAPGQGLEWMGGIIPIFGIVNYAQKFQGRVTITADESTSTAYMELSSLRSEDTAVYYCARGGGSGPDVLDIWGQGTMVTVSS
VL: VIWMTQSPSLLSASTGDRVTISCRMSQGIRSYLAWYQQKPGKAPELLIYAASTLQSGVPSRFSGSGSGTDFTLTISSLQSEDFATYYCQQYYSFPYTFGQGTKLEIK
notes: Human antibody from KM mouse hybridoma; recombinant form made in N5KG1-Val Lark vector (human IgG1, kappa) in HEK293F
- binding result [2]: no binding (tested: 1 µg/ml)

B5: Old17 anti-human IL-3Rα human antibody (antibody, human IgG1, V domains shown)
VH: QVQLVQSGAEVKKPGSSVKVSCKTSGGTFSNFAISWVRQAPGQGLEWMGGIIPIFGSTNYAQKFQGRVTINADESTSTAYMELSSLRSEDTAVYYCAGGDKYGPYYFHYWGQGTLVTVSS
VL: DIQMTQSPSSLSASVGDRVTITCRASQGISSWLAWYQQKPEKAPKSLIYAASSLQSGVPSRFSGSGSGTDFTLTISSLQPEDFATYYCQQYNSYPYTFGQGTKLEIK
notes: Human antibody; recombinant form in N5KG1-Val Lark vector (human IgG1, kappa)
- Kd [1]: 1.43 nM

B6: New102 anti-human IL-3Rα human antibody (antibody, human IgG1, V domains shown)
VH: QVQLVQSGAEVKKPGSSVKVSCMASGGTVSSYAISWVRQAPGQGLEWMGEIIPIFGIVNYAQKFQGRVTITADESTNTAYMELSSLRSEDTAIYYCARETAVAGILGYWGQGTLVTVSS
VL: DIQMTQSPSSLSASVGDRVTITCRASQGISSWLAWYQQKPEKAPKSLIYAASSLQSGVPSRFSGSGSGTDFTLTISSLQPEDFATYYCQQYNSYPYTFGQGTKLEIK
notes: as for B5
- Kd [1]: 0.798 nM
- binding result [2]: no binding (tested: 1 µg/ml)
- binding result [4]: no binding (tested: 1 µg/ml)
- binding result [5]: no binding (tested: 1 µg/ml)

Second part, the binder after the results:

- Kd [1]: 1.26 nM
- binding result [2]: no binding (tested: 1 µg/ml)
- binding result [3]: no binding (tested: 1 µg/ml)
B1: Old6 anti-human IL-3Rα human antibody (antibody, human IgG1, V domains shown)
VH: EVQLVESGGGLVKPGGSLRLSCAASGFTFSSHNMNWVRQAPGKGLEWVSSISSSSSYIYYADSVKGRFTISRDNAKNSLYLQMNSLRAEDTAVYYCAREDWGYFDYWGQGTLVTVSS
VL: AIQLTQSPSSLSASVGDRVTITCRASQGISSDLAWYQQKPGKAPKLLIYDASSLESGVPSRFSGSGSGTDFTLTISSLQPEDFATYYCQQFNSYPFTFGPGTKVDIK
notes: Human antibody

- binding result [2]: no binding (tested: 1 µg/ml)
B4: Old5 anti-human IL-3Rα human antibody (antibody, human IgG1, V domains shown)
VH: QVQLVQSGAEVKKPGSSVKVSCKASGGTFSTYAISWVRQAPGQGLEWMGGLIPIFDIENYAQKFQGRVTITADESTSTVYMELSSLRSEDTAMYYCARGGGSGPDVLDIWGQGTMVTVSS
VL: VIWMTQSPSLLSASTGDRVTISCRMSQGIRSYLAWYQQKPGKAPELLIYAASTLQSGVPSRFSGSGSGTDFTLTISSLQSEDFATYYCQQYYSFPYTFGQGTKLEIK
notes: as for B5
